Laboratory results published in publication PMC8951703, “A multifunctional enolase mediates cytoadhesion and interaction with host plasminogen and fibronectin in Mycoplasma hyorhinis” (Veterinary Research, 2022).

Target: T1, Recombinant M. hyorhinis enolase, wild-type (Mycoplasma hyorhinis (strain HUB-1), UniProt P0DXB0 1-450)
T1 construct: enolase of Mycoplasma hyorhinis strain HUB-1, full-length gene MHR_0469 of GenBank CP002170.1, codon-optimized and synthesized; the C-terminal residues are K451 and K452; also called rEno; rEno WT
Experiment: SPR; plasminogen or fibronectin immobilised on CM5 chips by amine coupling (600 RU); recombinant enolase proteins 0-4000 nM injected at 30 uL/min for 180 s, 20 °C, dissociation 1000 s; 10 mM HEPES, 150 mM NaCl, 3 mM EDTA, 0.05% surfactant P20; Biacore X100
Details: both partners purified

B1: plasminogen (natural protein)
chain: EPLDDYVNTQGASLFSVTKKQLGAGSIEECAAKCEEDEEFTCRAFQYHSKEQQCVIMAENRKSSIIIRMRDVVLFEKKVYLSECKTGNGKNYRGTMSKTKNGITCQKWSSTSPHRPRFSPATHPSEGLEENYCRNPDNDPQGPWCYTTDPEKRYDYCDILECEEECMHCSGENYDGKISKTMSGLECQAWDSQSPHAHGYIPSKFPNKNLKKNYCRNPDRELRPWCFTTDPNKRWELCDIPRCTTPPPSSGPTYQCLKGTGENYRGNVAVTVSGHTCQHWSAQTPHTHNRTPENFPCKNLDENYCRNPDGKRAPWCHTTNSQVRWEYCKIPSCDSSPVSTEQLAPTAPPELTPVVQDCYHGDGQSYRGTSSTTTTGKKCQSWSSMTPHRHQKTPENYPNAGLTMNYCRNPDADKGPWCFTTDPSVRWEYCNLKKCSGTEASVVAPPPVVLLPDVETPSEEDCMFGNGKGYRGKRATTVTGTPCQDWAAQEPHRHSIFTPETNPRAGLEKNYCRNPDGDVGGPWCYTTNPRKLYDYCDVPQCAAPSFDCGKPQVEPKKCPGRVVGGCVAHPHSWPWQVSLRTRFGMHFCGGTLISPEWVLTAAHCLEKSPRPSSYKVILGAHQEVNLEPHVQEIEVSRLFLEPTRKDIALLKLSSPAVITDKVIPACLPSPNYVVADRTECFITGWGETQGTFGAGLLKEAQLPVIENKVCNRYEFLNGRVQSTELCAGHLAGGTDSCQGDSGGPLVCFEKDKYILQGVTSWGLGCARPNKPGVYVRVSRFVTWIEGVMRNN
Kd: 1.4 ± 0.07 nM
